Source: article PMC11681983 (Biochemistry Research International, 2024)

B1: bispecific fusion protein 17V05 (bispecific antibody, V domains shown)
VH: EVQLVESGGGLVQPGGSLRLSCAASGFTFSSFDMSWGRQAPGKRLEWVAFMSSGGSTYYPDSVKGRFTISRDNSKNTLYLQMNSLRAEDTAVYYCARGERYGSYWGQGTLVTVSS
VL: DIQMTQSPSSLSASVGDRVTITCKASDHINNWLAWYQQKPGKAPKLLISGATSLETGVPSRFSGSGSGTDYTLTISSLQPEDFATYYCQQYWSTPFTFGSGTKLEIK
notes: heavy chain of the clinical stage anti-IL-17A mAb 608 (Sunshine Guojian Pharmaceutical); linker, printed as (G4S) x 3; light chain of the anti-IL-17A mAb 608; Variant of 17V01 with M464A in D2; Two copies of D2, one at the C-terminus of each heavy chain of 608; also called bispecific anti-IL17/VEGF fusion trap; source: 293HEK cells, one-step purification with protein A chromatography (told of the …)
B2: D2-Fc, a fusion protein with D2 fused to the N-terminus of an Fc (Fc fusion)
chain: SDTGRPFVEMYSEIPEIIHMTEGRELVIPCRVTSPNITVTLKKFPLDTLIPDGKRIIWDSRKGFIISNATYKEIGLLTCEATVNGHLYKTNYLTHRQTNTIID
modifications: Limits are not printed. VEGFR1 D2 is taken as S129-D231, the aflibercept / Flt1 D2 convention. The Fc carrier is omitted; two copies assume an Fc dimer. The printed clip site M464/Y465 (fusion …)

Experiments:
Conditions in all cases: both partners purified
IL-17A [1] = target: T1, IL-17A (human, UniProt Q16552); assay: ELISA; direct binding ELISA to IL-17A or VEGF, measured in duplicate, n = 2; who was coated is not told
T1 construct: IL-17A

IL-17A [2] = target: T1, IL-17A; assay: ELISA; ELISA-based assay of blocking the interaction of IL-17A with IL-17RA, in duplicate, n = 3
IL-17A [3] = target: T1, IL-17A; assay: SPR; Biacore, n = 3
VEGF = target: T2, VEGF (UniProt P15692 1-395); assay: ELISA; direct binding ELISA to IL-17A or VEGF, measured in duplicate, n = 2; who was coated is not told
T2 construct: vascular endothelial growth factor (VEGF); Probably VEGF165 (surmised); also called vascular endothelial growth factor
T2 sequence (P15692 whole entry): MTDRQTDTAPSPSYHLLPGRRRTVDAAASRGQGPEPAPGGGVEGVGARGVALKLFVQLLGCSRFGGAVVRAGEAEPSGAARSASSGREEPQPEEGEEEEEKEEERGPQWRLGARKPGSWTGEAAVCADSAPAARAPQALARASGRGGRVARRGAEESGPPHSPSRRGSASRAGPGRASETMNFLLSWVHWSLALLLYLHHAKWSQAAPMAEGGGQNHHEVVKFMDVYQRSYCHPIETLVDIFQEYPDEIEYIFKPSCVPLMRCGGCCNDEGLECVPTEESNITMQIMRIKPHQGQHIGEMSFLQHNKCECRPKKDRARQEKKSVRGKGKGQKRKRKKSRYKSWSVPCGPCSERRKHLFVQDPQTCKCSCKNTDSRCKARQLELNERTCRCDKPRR

T1 sequence (Q16552 24-155): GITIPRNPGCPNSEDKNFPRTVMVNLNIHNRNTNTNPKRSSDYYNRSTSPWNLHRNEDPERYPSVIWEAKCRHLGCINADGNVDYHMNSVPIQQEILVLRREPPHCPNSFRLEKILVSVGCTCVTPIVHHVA

Binder | EC50 (IL-17A [1]) | IC50 (IL-17A [2]) | Kd (IL-17A [3]) | EC50 (VEGF)
B1 | 0.05 nM | 2.77 nM | 0.0184 nM | 
B2 |  |  |  | 0.39 nM
